Data on five molecules can be found in paper doi:10.1101/2022.11.28.518166, “The direct interaction with transcriptional factor TEAD4 implied a straightforward regulation mechanism of tumor suppressor NF2” (bioRxiv, 2022).

The labels stand for the following.
B1: TEAD4 YBD domain (217-434) with N-terminal SUMO and 6xHis tag (domain or fragment, human, UniProt Q15561 217-434, looked up)
chain: RSVASSKLWMLEFSAFLEQQQDPDTYNKHLFVHIGQSSPSYSDPYLEAVDIRQIYDKFPEKKGGLKDLFERGPSNAFFLVKFWADLNTNIEDEGSSFYGVSSQYESPENMIITCSTKVCSFGKQVVEKVETEYARYENGHYSYRIHRSPLCEYMINFIHKLKHLPEKYMMNSVLENFTILQVVTNRDTQETLLCIAYVFEVSASEHGAQHHIYRLVKE
notes: Detected in the pull-downs with an antibody against 6xHis; also called SUMO-TEAD4; SUMO-tagged TEAD4-YBD; source: Escherichia coli BL21 (DE3), purified (Ni-NTA, Superdex 200); not shown: SUMO, N-terminal, kept; His6, N-terminal, kept

What all share (conditions): both partners purified
Assay [1] deals with T1, GST-NF2 C-terminal half (342-595 aa) (UniProt P35240 342-595).
T1 sequence (looked up): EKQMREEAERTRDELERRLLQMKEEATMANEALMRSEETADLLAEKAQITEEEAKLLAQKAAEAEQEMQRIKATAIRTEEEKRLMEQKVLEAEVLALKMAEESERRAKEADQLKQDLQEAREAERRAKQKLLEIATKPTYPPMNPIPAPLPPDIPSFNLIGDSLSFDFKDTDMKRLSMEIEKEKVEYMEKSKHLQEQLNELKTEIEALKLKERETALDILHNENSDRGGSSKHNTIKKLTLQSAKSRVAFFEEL
Kind of assay: pull-down; GST-NF2 (full length, truncations) bound to GST resin in PBS 1 h at 4 °C, incubated with purified SUMO-TEAD4 in PBS 1 h at 4 °C, washed four times; SDS-PAGE and anti-6xHis blot; in Figure 2C with or without co-incubated FERM domain.

The target of assay [2] is T2, GST-NF2 N-terminal FERM domain (1-341 aa) (UniProt P35240 1-341).
T2 construct: also called GST-NF2-FERM WT
T2 sequence (looked up): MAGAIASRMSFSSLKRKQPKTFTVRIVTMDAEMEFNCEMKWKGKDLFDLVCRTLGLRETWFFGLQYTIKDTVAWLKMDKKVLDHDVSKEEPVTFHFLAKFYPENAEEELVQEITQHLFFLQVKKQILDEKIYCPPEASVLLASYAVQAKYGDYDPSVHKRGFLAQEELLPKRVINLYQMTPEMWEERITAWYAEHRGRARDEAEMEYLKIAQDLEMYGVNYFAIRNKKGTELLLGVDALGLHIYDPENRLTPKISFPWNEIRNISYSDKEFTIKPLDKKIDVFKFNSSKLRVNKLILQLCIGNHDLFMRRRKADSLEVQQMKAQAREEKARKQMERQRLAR
The description is as above.

Assay [3] deals with T3, full-length NF2 with GST tag (UniProt P35240 1-595).
T3 construct: NF2 (Merlin), full length; also called GST-NF2; GST-NF2-FL; source: Escherichia coli, purified
T3 sequence (looked up): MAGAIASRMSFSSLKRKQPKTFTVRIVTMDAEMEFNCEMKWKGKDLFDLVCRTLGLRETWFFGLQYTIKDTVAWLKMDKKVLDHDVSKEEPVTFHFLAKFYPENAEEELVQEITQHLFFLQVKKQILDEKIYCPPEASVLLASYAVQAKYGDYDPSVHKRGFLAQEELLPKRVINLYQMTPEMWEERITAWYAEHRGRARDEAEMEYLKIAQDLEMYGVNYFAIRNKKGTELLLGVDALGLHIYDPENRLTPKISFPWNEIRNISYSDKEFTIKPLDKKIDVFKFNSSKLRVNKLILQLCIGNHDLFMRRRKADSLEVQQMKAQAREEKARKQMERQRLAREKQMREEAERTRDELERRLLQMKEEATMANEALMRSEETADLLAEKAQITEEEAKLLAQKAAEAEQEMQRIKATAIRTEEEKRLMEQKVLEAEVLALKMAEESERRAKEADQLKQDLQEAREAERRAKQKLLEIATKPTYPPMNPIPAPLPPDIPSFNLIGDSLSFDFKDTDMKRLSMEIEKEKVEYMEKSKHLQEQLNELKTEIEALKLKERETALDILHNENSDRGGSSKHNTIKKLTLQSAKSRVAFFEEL
The description is as above.

Another assay deals with T4, MBP-NF2 A585W mutant (UniProt P35240 18-595, A585W).
T4 construct: source: purified as MBP-NF2; not shown: MBP, N-terminal, kept
T4 sequence (looked up): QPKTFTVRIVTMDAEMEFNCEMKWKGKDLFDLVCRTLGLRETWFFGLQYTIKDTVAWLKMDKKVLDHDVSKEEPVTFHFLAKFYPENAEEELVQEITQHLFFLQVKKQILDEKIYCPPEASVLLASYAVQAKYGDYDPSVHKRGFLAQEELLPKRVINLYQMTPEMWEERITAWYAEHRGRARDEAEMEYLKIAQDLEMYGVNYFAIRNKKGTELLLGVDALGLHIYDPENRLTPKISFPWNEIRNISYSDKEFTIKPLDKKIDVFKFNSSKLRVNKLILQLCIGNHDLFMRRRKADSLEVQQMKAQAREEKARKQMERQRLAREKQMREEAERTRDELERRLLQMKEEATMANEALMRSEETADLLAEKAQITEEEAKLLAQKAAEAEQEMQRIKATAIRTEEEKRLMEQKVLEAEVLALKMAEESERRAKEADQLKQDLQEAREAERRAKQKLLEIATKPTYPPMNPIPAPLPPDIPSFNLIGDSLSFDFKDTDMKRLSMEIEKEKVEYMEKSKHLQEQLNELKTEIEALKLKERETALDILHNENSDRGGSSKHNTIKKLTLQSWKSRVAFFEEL
Kind of assay: pull-down; MBP-NF2 bound to MBP resin in PBS 1 h at 4 °C, incubated with purified SUMO-TEAD4 in PBS 1 h at 4 °C, washed four times; SDS-PAGE and anti-6xHis blot.

In a further assay the target is T5, MBP-NF2 (18-595) WT (UniProt P35240 18-595).
T5 construct: also called MBP-NF2 WT; MBP-NF2 FL; source: purified (amylose resin, Superdex 200); not shown: MBP, N-terminal, kept
T5 sequence (looked up): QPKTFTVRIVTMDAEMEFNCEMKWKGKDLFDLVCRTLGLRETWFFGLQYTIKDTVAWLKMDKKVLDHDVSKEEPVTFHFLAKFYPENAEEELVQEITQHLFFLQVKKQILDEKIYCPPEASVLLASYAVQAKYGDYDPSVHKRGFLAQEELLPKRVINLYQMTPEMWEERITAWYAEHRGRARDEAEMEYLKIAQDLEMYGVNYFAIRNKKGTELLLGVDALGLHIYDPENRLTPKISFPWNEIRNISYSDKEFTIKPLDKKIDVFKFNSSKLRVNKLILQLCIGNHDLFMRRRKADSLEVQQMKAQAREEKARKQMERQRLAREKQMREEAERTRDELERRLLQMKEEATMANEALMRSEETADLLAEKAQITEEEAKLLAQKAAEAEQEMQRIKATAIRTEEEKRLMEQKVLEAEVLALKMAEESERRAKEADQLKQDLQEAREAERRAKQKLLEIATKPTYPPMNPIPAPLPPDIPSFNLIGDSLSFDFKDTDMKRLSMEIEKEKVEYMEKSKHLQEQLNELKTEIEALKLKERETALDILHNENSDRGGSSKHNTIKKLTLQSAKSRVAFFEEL
The assay is described as above.

The target of assay [4] is B1. Kind of assay: pull-down; in vitro competitive binding assay: YAP-TEAD4 complex on GST-YAP with a dose addition of NF2; SDS-PAGE.
The target of assay [5] is B1. Kind of assay: pull-down; GST-NF2 (full length, truncations) bound to GST resin in PBS 1 h at 4 °C, incubated with purified SUMO-TEAD4 in PBS 1 h at 4 °C, washed four times; SDS-PAGE and anti-6xHis blot; in Figure 2C with or without co-incubated FERM domain.

Turning to B1, the binding result (in assay [1]; in assay [2]; in assay [3]; with MBP-NF2 A585W mutant; in the assay with MBP-NF2 (18-595) WT) was “binds” throughout.

B2: GST-YAP 47-131 (domain or fragment, UniProt P46937 47-131, looked up)
chain: APPAGHQIVHVRGDSETDLEALFNAVMNPKTANVPQTVPMRLRKLPDSFFKPPEPKSHSRQASTDAGTAGALTPQHVRAHSSPAS
notes: YAP (Yes-associated protein), residues 47-131
For B2, the binding result in assay [4] is “binds”.

B3: TEAD4-2CS (C335S/C367S), non-palmitoylated mutant of TEAD4-YBD (domain or fragment, human, UniProt Q15561 217-434, looked up)
chain: RSVASSKLWMLEFSAFLEQQQDPDTYNKHLFVHIGQSSPSYSDPYLEAVDIRQIYDKFPEKKGGLKDLFERGPSNAFFLVKFWADLNTNIEDEGSSFYGVSSQYESPENMIITCSTKVSSFGKQVVEKVETEYARYENGHYSYRIHRSPLSEYMINFIHKLKHLPEKYMMNSVLENFTILQVVTNRDTQETLLCIAYVFEVSASEHGAQHHIYRLVKE
notes: TEAD4, human, YBD, residues 217-434 as TEAD4-YBDHis, with C335S and C367S; source: recombinant; not shown: His6, N-terminal, kept
Take B3: the binding result with MBP-NF2 (18-595) WT is reported as “binds”.

B4: GST-NF2 tail region (C-tail, 550-595 aa) (domain or fragment, UniProt P35240 550-595, looked up)
chain: KLKERETALDILHNENSDRGGSSKHNTIKKLTLQSAKSRVAFFEEL
notes: also called C-terminal tail
For the molecule B4, the binding result in assay [5] is recorded as “binds”.

B5: GST-NF2-507-595 WT (domain or fragment, UniProt P35240 507-595, looked up)
chain: FDFKDTDMKRLSMEIEKEKVEYMEKSKHLQEQLNELKTEIEALKLKERETALDILHNENSDRGGSSKHNTIKKLTLQSAKSRVAFFEEL
Take B5: the binding result in assay [5] is given as “binds”.
